The results in this text go back to paper PMC4255369, “Identification of structural determinants on tau protein essential for its pathological function: novel therapeutic target for tau immunotherapy in Alzheimer’s disease” (Alzheimer's Research & Therapy, 2014).

Holding throughout (details): both partners purified
For assay [1], the target named is T1, tau 299–304 (6-mer peptide from MTBR2, identical to tau 362–367 from MTBR4) (Homo sapiens).
T1 construct: numbers count on: the longest human tau isoform (2N4R); source: synthetic peptide, bought: EZBiolab (>95% purity)
T1 chain: HVPGGG
The assay is described as follows: ELISA; competitive ELISA; plates coated with 250 ng/well purified tau 151-391/4R; DC8E8 0.6 μg/ml (3.8 nM), 60 μl mixed with 40 μl of 200 μM peptide, 1 hour at 25°C, then 1 hour at 25°C on the plate.

In assay [2] the target is T2, tau 268–273 (6-mer peptide from MTBR1) (Homo sapiens).
T2 construct: numbers count on: the longest human tau isoform (2N4R); also called HQPGGG; source: synthetic peptide, bought: EZBiolab (>95% purity)
T2 chain: HQPGGG
The assay is described as above.

The target of assay [3] is T3, tau 330–335 (6-mer peptide from MTBR3) (Homo sapiens).
T3 construct: human tau residues 330-335; numbers count on: the longest human tau isoform (2N4R); also called HKPGGG; source: synthetic peptide, bought: EZBiolab (>95% purity)
T3 chain: HKPGGG
The description is as above.

Assay [4] has as its target T4, mis-disordered tau 151-391/3R (Homo sapiens, UniProt P10636-5).
T4 construct: numbers count on: the longest human tau isoform (2N4R); also called three-repeat mis-disordered truncated tau protein
The assay is described as follows: SPR; Biacore 3000, CM5; DC8E8 captured (230 to 250 RU) by coupled polyclonal anti-mouse antibody; twofold serial dilutions of tau proteins injected at 50 μl/min; 25°C, PBS pH 7.4 with 0.005% P20; fitted to a two-phase reaction model.

Assay [5] concerns the target T5, mis-disordered tau protein 151-391/4R (human, UniProt P10636-8).
T5 construct: numbers count on: the longest human tau isoform (2N4R); source: purified
Described as above.

Assay [6] addresses T6, human tau protein isoform 2N4R (Homo sapiens, isoform 2N4R (Tau-F, 441 …, UniProt P10636-8)).
T6 construct: human tau, longest isoform 2N4R (four repeats, two N-terminal inserts); also called full-length tau isoform 2N4R; physiological tau
Described as above.

The target of assay [7] is T7, human tau protein isoform 2N3R (Homo sapiens, UniProt P10636-5).
T7 construct: human tau, isoform 2N3R (three repeats, two N-terminal inserts); also called three-repeat tau protein isoform 2N3R; full-length three-repeat tau protein
The assay is described as above.

T5 sequence (P10636 468-708): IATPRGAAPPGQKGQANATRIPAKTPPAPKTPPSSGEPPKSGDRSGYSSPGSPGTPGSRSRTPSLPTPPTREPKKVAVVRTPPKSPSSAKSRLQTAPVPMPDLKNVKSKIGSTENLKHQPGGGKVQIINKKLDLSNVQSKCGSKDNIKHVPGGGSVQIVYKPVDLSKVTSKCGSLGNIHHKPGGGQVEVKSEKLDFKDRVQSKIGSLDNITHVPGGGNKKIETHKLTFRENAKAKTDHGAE
T4 sequence (P10636 other isoform, or with tags, fused parts or gaps): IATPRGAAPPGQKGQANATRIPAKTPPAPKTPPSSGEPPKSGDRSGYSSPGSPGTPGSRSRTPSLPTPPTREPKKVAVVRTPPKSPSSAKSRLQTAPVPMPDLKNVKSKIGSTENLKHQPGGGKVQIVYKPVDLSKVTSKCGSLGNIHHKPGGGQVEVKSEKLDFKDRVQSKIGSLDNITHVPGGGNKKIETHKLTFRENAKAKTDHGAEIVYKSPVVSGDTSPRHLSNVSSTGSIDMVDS
T7 sequence (P10636 other isoform, or with tags, fused parts or gaps): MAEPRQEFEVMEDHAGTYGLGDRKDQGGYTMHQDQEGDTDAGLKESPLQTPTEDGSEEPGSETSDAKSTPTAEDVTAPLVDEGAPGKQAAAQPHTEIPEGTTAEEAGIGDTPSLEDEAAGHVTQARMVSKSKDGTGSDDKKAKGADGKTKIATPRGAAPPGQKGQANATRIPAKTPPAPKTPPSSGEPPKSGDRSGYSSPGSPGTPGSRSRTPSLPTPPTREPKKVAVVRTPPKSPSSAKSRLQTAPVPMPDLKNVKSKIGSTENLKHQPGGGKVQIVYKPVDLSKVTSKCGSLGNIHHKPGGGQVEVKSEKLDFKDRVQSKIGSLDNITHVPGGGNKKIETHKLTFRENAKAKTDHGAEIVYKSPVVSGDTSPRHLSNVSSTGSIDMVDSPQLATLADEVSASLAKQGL
T6 sequence (P10636 other isoform, or with tags, fused parts or gaps): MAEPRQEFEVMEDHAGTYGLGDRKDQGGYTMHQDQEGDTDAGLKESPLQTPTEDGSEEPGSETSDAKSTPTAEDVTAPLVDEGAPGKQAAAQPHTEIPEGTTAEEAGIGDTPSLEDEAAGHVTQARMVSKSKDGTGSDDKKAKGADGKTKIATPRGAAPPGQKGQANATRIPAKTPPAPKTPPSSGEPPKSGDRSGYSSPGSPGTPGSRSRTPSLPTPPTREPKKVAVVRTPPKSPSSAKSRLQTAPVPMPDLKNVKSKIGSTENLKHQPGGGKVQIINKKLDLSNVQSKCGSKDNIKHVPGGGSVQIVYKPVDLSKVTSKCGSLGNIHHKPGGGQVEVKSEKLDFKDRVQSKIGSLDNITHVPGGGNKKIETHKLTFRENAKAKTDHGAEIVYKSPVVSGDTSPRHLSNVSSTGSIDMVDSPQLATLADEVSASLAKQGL

B1: monoclonal antibody DC8E8 (antibody, V domains shown)
VH: QVQLQQSGPELVKPGTSVKMPCKASGYIFTDYVISWVKQRTGQGLEWIGEIFPRSGSTYYNEKFKGKATLTADKSSNTAYMQLSSVTSEDSAVYFCARDYYGTSFAMDYWGQGTSVTVSS
VL: DIVMSQSPSSLAVSAGEKVTMSCKSSQSLLNSRTRKNYLAWYQQKPGQSPKLLIYWASTRESGVPDRFTGSGSGTDFTLTISSVQAEDLAVYYCKQSFYLRTFGGGTKLDIK
notes: the Fab of DC8E8 is deposited as PDB 4OZ4 (heavy chain of the Fab); the Fab of DC8E8 is deposited as PDB 4OZ4 (light chain); The crystal structure (4OZ4) is of the papain Fab without antigen; also called mAb DC8E8; source: mouse hybridoma (Balb/c spleen cells fused with NS0); hybridoma culture supernatant (indirect ELISA); purified antibody (protein G Sepharose)
Turning to B1, the binding result in assay [1], in assay [2] and in assay [3] was “binds” each time. Further, the “fold affinity against full-length tau isoform 2N3R” value in assay [4] came to 25 fold. In addition, the koff in assay [4] was found to be 0.08 s⁻¹; in assay [5], 0.04 s⁻¹; in assay [6], 0.04 s⁻¹; in assay [7], 0.4 s⁻¹. Also, the kon came out at 150000 M⁻¹ s⁻¹ in assay [4], 2.9e+06 M⁻¹ s⁻¹ in assay [5], 440000 M⁻¹ s⁻¹ in assay [6] and 28000 M⁻¹ s⁻¹ in assay [7]. In addition, the “fold affinity against full-length tau isoform 2N4R” value in assay [5] worked out at 7 fold.
